The text below walks through data of the DeepSol protein solubility set.

This series can be described thus: soluble on expression in E. coli; label from the status in PepcDB or PDB records.
On to “LDIQMTQSPSSLSASLGERVSLTCRASQEISGYLYWLQQKPDGTIKRLIYAGSTLDSGVPKRFSGSRSGSDYSLTISSLESEDFADYYCLQYASYPRTFGGGTKVEIKRTVAAPSVFIFPPSDEQLKSGTASVVCLLNNFYPREAKVQWKVDNALQSGNSQESVTEQDSKDSTYSLSSTLTLSKADYEKHKVYACEVTHQGLSSPVTKSFNRGECGAGA”, for which the “soluble on expression in E. coli” value was “soluble”.

Turning to “MSKHRIALAGNPNTGKSTLFNTLTGLKQHTGNWTGKTVLKAEGEYEHNGSNYTLIDLPGTYSLYSNSADEEVARDYIIFEKPEVTVVVIDATAMERNLNLALQVMEMTNNVVICINLIDEAEKKGIVIDEKKLAKSLGVPVVKISARNRVGIGHLLNVIAKVANKKLIPTPIKITYSEKIENMIQELEPQIYKVFGDTYPARWIALRILDGDKNFLTTLQKHHNEPLVREVVINGISLSQ”, the “soluble on expression in E. coli” value is recorded as “not soluble”. As for “MSLDAHNFFKAGPYAPLAARMRPQSLDEVVGQRHLLDSGKPLQRLIAGSGDASVILYGPPGTGKTTIASLISAGTGHEFVGLSALNSGVKEIREVIDQARRNLIHGKRTVLFIDEVHRFSKTQQDALLAAVENRTVLLVAATTENPSFSVVAPLLSRSLILQLKPLTHDDIKTVLLHALQDKRGLDNRITISDEALEQLVLLSGGDARRSLTYLEAASESLADGEELTPEIIRHNVDKAIVRYDRDGDQHYDVVSAFIKSMRGSDVDAALHYLARMIDAGEDPRFIARRLVIHASEDVGMADPQALSVAVAASQAVALIGMPEARINLAQATIHLATAPKSNAVITAIDAALADVKQGKTGPVPAHLRDGHYAGAKQLGNAVGYKYPHDDPRGIVEQQYIPNGLEDVVYYRPSEHGAEQRIESYLGKLRRIVRGQREGHHHHHH”, the “soluble on expression in E. coli” value was “soluble”. Next, “MRKLTALFVASTLALGAANLAHAADTTTAAPADAKPMMHHKGKFGPHQDMMFKDLNLTDAQKQQIHEIMKGQRDQMKRPPLEERRAMHDIIASDTFDKAKAEAQIAKMEEQRKANMLAHMETQNKIYNILTPEQKKQFNANFEKRLTERPAAKGKMPATAELEHHHHHH”: “soluble”. Consider “MGSDKIHHHHHHMSNFGRQIEAFRAVMLTGGMTTAAETLRITQPAISRLIRDLEDDLKIALFHRRGNQITPTVEATAFLAEVERSYLGMDQLRTFAVDLRNSLTGSLRIAALPAMALGFMPYCLAKFSGTRPKLSITLDGIPSHLVLERVAGGQFELGFAAVPADRPMLNTTPIKARAVVVMPEGHPLAKNETVSADQLRNERIVMLDRGNYLRHTIERALGTRAGSPGAIETPLSAIACSFVARGLGVTIIDAFTAINFLGRGIEARLLVPELDFGFAMVTAQQRPMSQLARQFAQEIHLLAEEYQSPIFG”, for which the “soluble on expression in E. coli” value is reported as “not soluble”. Next, “MKFPFHPWRRLLLCALPFAALLTACDDGKKEPPPKPAEVTTYNSVPWDALPATSDADLLAGFNAWRSACARLAKDPVWGEPCASATTVAADPTAVRAFLQERMQVYSLRSSSNGDQGLITGYYEPVYHGSLSQGEKTPVPVYGVPDDLVVVALESVYPELKGKRLRGRLEGRVLKPYDDAATIRDNGSSAPVLAWLGDPMDLQFLQIQGSGRIQLEDGRQLRIGYGDQNGHPYKPVGRWLVEQGLVPKEEISMKRIRDWAEANPQRVSELLASNPSFVFFSLRPDSDEGPRGSLNVPLTDGYSVAIDRKVIPLGSLMWLSTTRPDDGSAVVRPVAAQDTGGAIVGEVRADLFWGTGDAAGELAGHMKQPGRLWLLWPKGAPLPAS”: “not soluble”.

Regarding “MSLQAHCEEFRVCAMCRVLRVNRSGYYAWLCSPNSERAKEDDRLLGLIKHHWLASGSVYGHRKITTDLRDLGERCSRHRVHRLMRTEGLRAQVGYGRKPRFHGGMQCKAAANLLDRQFDVTEPDTAWASDFTFIRTHEGWMYLAVVIDLFSRQVVGWAMRDRADTELVVQAVLSAVWRRKPNTGCLVHSDQGSVYTSDDWRSFLASHGLVCSMSRRGNCHDNAPVESFFGLLKRERIRRRTYPTKDAARAEVFDYIEMFYNPNRRHGSTGDLSPVEFERRYAQRGSEGHHHHHH”, the “soluble on expression in E. coli” value is on record as “not soluble”. As to “LINQAEVDIYDIPVALITEQYMAYIHTMQELQLDVASEYLVMAATLLQIKSKMLLPKQEEIFDETFEYEEEDPREELMFRLIEYRRYKEAAQELKEKEGERSQVHTRLPDNLDDYLTEEERQRQSIQGVTLFDMLAAYQKLLKRRAYSRPRTSTVKVEEYSIDERMTDILMDLEKCNGKCRFQDLFV”, the “soluble on expression in E. coli” value is on record as “not soluble”.

Turning to “AHHHHHHGSILLLTGMPGSGKGVVAREFEKRGIPVVSMGDAIREEAEKRGIPKTPEGLKEVSLKVREELGPGAVAILTVPKVRKLLELNPVVVVEGVRSPYEVEEFRKEFKNEEIKVVAIHSSPKSRFQRLLKRQRSDDPKTWEEFVERDRKELNFGIGEVIALADYIIVNECGFDQLKANIEKLISMIFDGKI”, the “soluble on expression in E. coli” value is recorded as “soluble”. Next, “MPQYKLTYFDLRGWAEPARQLFHLSHTPYDDIRIPMADTEGKWEKMRDKTPFGQLPVLNVDGFDIPQSAAICRYLAKKFGYAGKTPEEEAWADAVVDQFKDFSVAFKTLLFATRAGKPEEEILKIRYEIFNPARDVYFILLNRILKKSKSGYLVGDGLTWADLVIADNLHSLEKLRAIDDDDEGHQNLKKYKEKIYGTPDLEDHIATRMDTEV”: “not soluble”; “MKNVGDVGDLCTGCGTCAAMCPLESVVMRIDHDRGVYEPLVDGECDGCGVCLRVCPGVGVDFTDLNMRVFGREPDDMLMGNYEECYIAHSRDDELRYGASSGGMISQILIYLLEEGLIDGALVTRMNPERPLEPEPFIARTPSEIIESRGSKYCPVPANVALKEILEVPGRYAVVGLPCHIHGVRKAEVISRKLRERIVYHLGIVCNHAPSFRATEFLLERLGVDPGDVKSIRYRGEGWPGSLRVETESGDLLLLPEYWGSGFGQLFMPERCRLCADHMAELSDISFADPWLKELKDEKKGRTLVIIRKWPEKFAGILKGGICEMDKIKPEKALLSQIYNIYMKKKLCRRSMYNGSFPEIDFIDRIILSFEPSRLKIPWTIKRRYIFFYSMIVALKARMDFLGDSKLEHHHHHH”: “soluble”; “MSVSITFTDAAKRALASIVAQSERQLKLAFDTDGCGCLVDGVPALWLVDKADEDDVVVETNFMPVLVERSRLIFFDEAMTIDVKPGTTVFQLKSPGQTLNGHMPLVEVKSGHER”: “not soluble”. In the case of “MFRRARPLRKTTRINGLERNGLKRSGRGWNAPGADVLARHCPLLPGRADAIGRGRLIVATWPKSAAKQRQNVPPARSRTRWRSMSSCHRSGPQKRGRDSGAVTAVTGAPNGQATAFVSLNDEVDAVAAAANLWVRAKSPLHGHAEHLRCEARLATFGARRQRQRVRGRARPECPRRRRSAMADMPPSAP” it was “not soluble”; in that of “MSLPEKLPYLVELSPGRRNHFAYYNYHTYEDGSDSRDKPKLYRLQLSVTEVGTEKLDDNSIQLFGPGIQPHHCDLTNMDGVVTVTPRSMDAETYVEGQRISETTMLQSGMKVQFGASHVFKFVDPSQDHALAKRSVDGGLMVKGPRHKPGIVQETTFDLGGDIHSGTALPTSKSTTRLDSDRVSSASSTAERGMVKPMIRVEQQPDYRRQESRTQDASGPELILPASIEFRESSEDSFLSAIINYTNSSTVHFKLSPTYVLYMACRYVLSNQYRPDISPTERTHKVIAVVNKMVSMMEGVIQKQKNIAGALAFWMANASELLNFIKQDRDLSRITLDAQDVLAHLVQMAFKYLVHCLQSELNNYMPAFLDDPEENSLQRPKIDDVLHTLTGAMSLLRRCRVNAALTIQLFSQLFHFINMWLFNRLVTDPDSGLCSHYWGAIIRQQLGHIEAWAEKQGLELAADCHLSRIVQATTLLTMDKYAPDDIPNINSTCFKLNSLQLQALLQNYHCAPDEPFIPTDLIENVVTVAENTADELARSDGREVQLEEDPDLQLPFLLPEDGYSCDVVRNIPNGLQEFLDPLCQRGFCRLIPHTRSPGTWTIYFEGADYESHLLRENTELAQPLRKEPEIITVTLKKQNGMGLSIVAAKGAGQDKLGIYVKSVVKGGAADVDGRLAAGDQLLSVDGRSLVGLSQERAAELMTRTSSVVTLEVAKQGAIYHGLATLLNQPSPMMQREGHHHHHH”, “soluble”. As for “MPLMRAIGVIRKSRGERWSREEFEELLRSAGYEILAIVEQVREEHPRYNIGPGKLEEVKKLVKELKPDKVIFANRLTPSQAYNLWKELRVDIIDKWQLVLEIFEKRAHSKEAKLQVELANLQYELPLVKEAIRRIKMGDRAGFKGMGEYQVHQYLKHIKYRMGRIKGELEKIRAEREIRRKKREEEGFVLIALAGYTNAGKSTLLNALTGEDIEAKNQMFTTLDTTTRRFKVKGKMLLVTDTVGFIDGLPPFIVEAFHSTLEEIVKADIIILVLDASEPWKEIRRKLFASLNVLRELKALDRPMIVALNKVDLISDEDAKEKELLVRETIDGRANTVGVARISAKLNQLEELYNLIEVALSRLPKFQTFEIRVKDPSKLGKVLSMVHSMGDLLEVEYSEETKIKAYIQTGLIRELTKLGVSLKRISLEHHHHHH”, the “soluble on expression in E. coli” value is given as “not soluble”.

In the case of “MNILTLMETFSAVVEAGSFTGAAEKLGLSKSFVSKQVSTLEVELGCRLLYRTTRTLSLSDEGSQFYNHCKIIMAEAENARAEVMDRQGAPRGKIRMTIPQSLIISGFGQLLIDFQLQYPEIKLEVIASGRIEDLVKEGIDIALRVGQLEDSSLISRRLMDCTFQVVASSDYIKKWGEPFQPADLMQHNCLIYGDSKINKGWPFRSPSGESITVKAKGNFISNDGGLVVEGMLNGLGIGFGPSFLFNEHVEKGRLKLLLSDYYQPPTAISALYPLNRNLSRRIRLLIDYLSERLSV”, the “soluble on expression in E. coli” value was “not soluble”. Take “MGSDKIHHHHHHMKISERQKDLLKEIGNIGAGNAATAISYMINKKVEISVPNVEIVPISKVIFIAKDPEEIVVGVKMPVTGDIEGSVLLIMGTTVVKKILEILTGRAPDNLLNLDEFSASALREIGNIMCGTYVSALADFLGFKIDTLPPQLVIDMISAIFAEASIEELEDNSEDQIVFVETLLKVEEEEEPLTSYMMMIPKPGYLVKIFERMGIQE”: the “soluble on expression in E. coli” value is recorded as “not soluble”. In the case of “ETVHETPLLIFPPWINKFYILDLKPQNSLLKWLVDQGFTVFVVSWVNPDKSYAGIGMDDYIREGYMRAMAEVRSITRQKQINAVGYCIAGTTLTLTLAHLQKAGDPSVRSATFFTTLTDFSDPGEVGVFLNDDFVDGIERQVAVDGILDKTFMSRTFSYLRSNDLIYQPAIKSYMMGEAPPAFDLLYWNGDGTNLPAQMAVEYLRGLCQQDRLAGGTFPVLGSPVGLKDVTLPVCAIACETDHIAPWKSSFNGFRQFGSTDKTFILSQSGHV” it was “not soluble”; in that of “MTMNHDDRLRNRYEACRSGMQELDMLRAKHTLLIQNLRSRLPIIPGSLDDVQTREKKTRDVFLDRFSLQSVDSGISSQNTISSTRSSTPEDFKTSNRHSNIYENSSTTMNYSTFRKMSLESTHSSVSHSMQNDVEKTSFAPPVITSRSCHRGAWKTSPQRIRPKSMFDSTTSNTEYLFSKPPRHPIDLTKERRSAFTVLNQSSKRHSSIEPSLPSTLSQLSLNDEAKTPQKAEVIRWNKQKADAMFRANVVYVSSTEQPTKPAPLRFSPARSPPVRRALPIELKPTQHFAQPCKIRSPKLNTKTVFAAKPIAVRPSISPKVAQRSTWLQSQPL”, “not soluble”. Regarding “MVQRVTIAPQGPEFSRFVMGYWRLMDWNMSARQLVSFIEEHLDLGVTTVDHADIYGGYQCEAAFGEALTLAPHLREKLQIVTKCGIATTARAENKLGHYITDRRHIILSAEQSLKNLATDYLDMLLIHRPDPLMDADDVAEAFQHLHQSGKVRHFGVSNFTPAQFTLLQSRLPFTLATNQVEISPVHQPLLLDGTLDQLQQLRIRPMAWSCLGGGRLFNDEAYQPLRQELSVIAQELNASSIEQVVYAWILRLPSQPLPIIGSGKIERVRAALEAETLSLTRQQWFRIRKAALGYDVP”, the “soluble on expression in E. coli” value is listed as “not soluble”.
